Measurements from patent US11020478B2, “Methods for modulating angiogenesis of cancers refractory to anti-VEGF treatment” (INIS BIOTECH LLC, priority 2013, dated 2021).

Assays:
VEGFR2 = experiment: Immunoblot of VEGFR2 phosphorylation in HUVEC; type: cell-based, human
Method: Cells were lysed and analyzed by the human […] RTK Signaling Antibody Array (Cell Signaling) following the manufacturer's directions. For co-immunoprecipitation, 500 μg lysates were incubated with 2 μg anti-VEGFR2 (55B11; Cell Signaling) Ab. The immunocomplexes were captured with protein G PLUS-Agarose (Santa Cruz) and processed for immunoblotting (according to methods described in Ilarregui et al., Nat. Immunol. 10, 981-99 (2009)). Blots were probed with anti-Erk1/2 (C14), anti-phospho-Erk1/2 (E4), anti-actin (I-19), anti-Gal3 (B2C10), anti-Gal4 (Q20), anti-Gal7 (H8) or anti-Gal8 (D18) Ab (all from Santa Cruz) or anti-Akt (9272), anti-phospho-Akt (9271 S), anti-VEGFR2 (55B11), anti-phospho-VEGFR2 (19A10) Ab (all from Cell Signaling) or a rabbit anti-Gal1 polyclonal IgG (1.5 μg/ml) (as described in Rubinstein et al., Cancer Cell 5:3, 241-51 (2004)).

B16-F0 melanoma [1] = experiment: In vivo tumor model, B16-F0; parameters: species or system mouse; settings: single administration of F8.G7 mAb, 10 mg/kg
HUVEC tube formation = experiment: Capillary-like tube formation on Matrigel (HUVEC); type: cell-based, human; settings: HUVEC
Method: (§1) Cells were incubated at 37° C. for periods ranging from 0 to 24 h and were visualized by phase-contrast microscopy. Capillary-like tubular structures were scored by counting the number of tubules (closed areas) per well in a phase-contrast microscope (Nikon E-100). For migration assays, ECs (4×10^4/well) transfected or not with specific siRNA were resuspended in M199 medium supplemented with 1% FCS. Cells were placed into the top chamber of the insert while the bottom well was filled with Gal1 or VEGF-A in the absence or presence of the above mentioned stimuli. After 24 hours, inserts were stained with crystal violet (Sigma) and analyzed in an inverted microscope. For each filter, 4 images were obtained and cells were counted with ImageJ software v1.46r (NIH). […] After 24 hours, cells were incubated in the presence of 0.8 μCi [^3H]-thymidine (NEN Dupont). Cells were then harvested and radioactivity was measured in a 1414 Liquid Scintillation Counter (Perkin Elmer). Tumor-associated ECs were identified by flow cytometry using Alexa Fluor 647-conjugated anti-CD34 (RAM34; eBioscience) and FITC-conjugated anti-CD45 (J33; Immunotech). Microvessel density (MVD) was determined by counting the number of CD31^+ microvessels present in 10 mm^2. Ten random 400× fields were counted.

[2] = tested on: other members of the galectin family; settings: cited from earlier work
HUVEC migration = experiment: EC migration assay (HUVEC); type: cell-based, human
Method: as §1

TDLN cells = experiment: TDLN cell responses of tumor-bearing mice (ex vivo restimulation, ELISA, flow cytometry); type: in vivo, mouse
Method: (§2) Gal1 was determined using an in-house ELISA (according to the methods described in Croci et al., J. Exp. Med. 209:11, 1985-2000 (2012). The mouse IFN-γ (DY485), mouse IL-17 (DY421), mouse TGF-β1 (DY1679), mouse Gal3 (DY1179) and human VEGF-A (DY293B) ELISA sets were from R&D. The mouse IL-10 (555252) set was from BD Biosciences, the mouse bFGF (Ab100670) set was from Abcam, and the mouse Gal8 (SEA308Mu) set was from USCN Life Science. Optical densities were determined at 450-550 nm in a Multiskan MS microplate reader (Thermo Electron Corporation).
(§3) For intracellular cytokine staining, TDLN cells were made permeable with Perm2 solution (BD Biosciences) and were labeled with fluorescent-conjugated mAb anti-IFN-γ (XMG1.2; BD Biosciences), anti-IL-17 (TC11-18H10; BD Biosciences), anti-IL-10 (JESS-16E3; eBioscience), anti-CD8 (H35-17.2; eBioscience) and anti-CD4 (GK1.5; BD Biosciences). Cells were analyzed on a FACSCanto II flow cytometer (BD Biosciences). For adoptive transfer, splenic T cells (5×10^6) from tumor-bearing mice were labeled with CFSE (Molecular Probes) and injected through the tail vein into tumor-bearing recipient mice treated with F8.G7 mAb or isotype control. APC-fluorescent beads (7-10 μm; BD Biosciences) were injected as controls. CFSE^+ cells or APC^+ beads were analyzed after 24 h or 15 min respectively by flow cytometry in the tumor parenchyma and spleen.
(§4) Mice were anesthetized and intracardiacally perfused with PBS and 4% (w/v) paraformaldehyde and tissues were embedded in OCT. To visualize the vasculature, mice were intravenously injected with FITC-conjugated Griffonia simplicifolia Lectin-1 (GLS-1B4; Vector) prior to heart perfusion and fixation. Pericyte maturation was assessed using Ab specific for α-SMA (1A4; Dako), desmin (D33; Dako), PDGFR-β (APB5; Biolegend) and RGS5 (HPA001821; Prestige Sigma). The fraction of pericyte coverage was calculated as the ratio of α-SMA area to the FITC-GLS-1B4 or CD31-stained area using a specific anti-CD31 Ab (Mec13.3; BD Biosciences). Hypoxia was detected after injection of pimonidazole hydrochloride for 30 min following immunostaining with Hypoxyprobe-1 plus kit (Natural Pharmacia). Tumor-infiltrating cells were analyzed using anti-CD8 (H35-17.2; e-Bioscience) and anti-F4/80 (BM8; eBioscience) mAb.
Wild-type or Gal1 knockdown B16-F0, LLC1 and R1.1 (2.5 or 5×10^5 cells) were subcutaneously inoculated into 6- to 8-week old WT, Mgat5^−/−, St6gal1^−/− or Rag1^−/− B6 mice. CT26 (5×10^5) cells were injected into syngeneic BALB/c mice. […] Two weeks after tumor inoculation, TDLN cells (5×10^5/well) were re-stimulated ex vivo for 72 hours with lysates of B16-F0 or LLC1 cells and analyzed for proliferation and cytokine production (as described in Rubinstein et al., Cancer Cell 5:3, 241-51 (2004)).

Gal1 = biological target: T1, Gal1 (Mus musculus, UniProt P16045); experiment: ELISA of Gal1 secretion by tumors inoculated in syngeneic mice; type: in vivo; settings: B16-F0, LLC1 and R1.1 tumors, day 16
T1 construct: from tissue; host or cells: B16-F0, LLC1 and R1.1 tumours grown in syngeneic mice
Method: as §2
(§5) Wild-type or Gal1 knockdown B16-F0, LLC1 and R1.1 (2.5 or 5×10^5 cells) were subcutaneously inoculated into 6- to 8-week old WT, Mgat5^−/−, St6gal1^−/− or Rag1^−/− B6 mice. CT26 (5×10^5) cells were injected into syngeneic BALB/c mice. When tumors reached 100 mm^3, mice were inoculated intraperitoneally with anti-VEGF (B20-4.1.1; 5 or 10 mg/kg), anti-Gal1 (F8.G7; 5, 10 or 15 mg/kg) or isotype control mAb twice weekly. Axitinib (30 mg/kg; Sigma) was administered every two days by oral gavage. Mice were sacrificed when tumors reached a volume greater than 2.5 cm^3. Two weeks after tumor inoculation, TDLN cells (5×10^5/well) were re-stimulated ex vivo for 72 hours with lysates of B16-F0 or LLC1 cells and analyzed for proliferation and cytokine production (as described in Rubinstein et al., Cancer Cell 5:3, 241-51 (2004)).

B16-F0 tumor parenchyma = experiment: Adoptive transfer of CFSE-labeled T cells / fluorescent beads, influx to tumor and spleen; type: in vivo, mouse
Method: as §3

B16-F0 melanoma [3] = experiment: In vivo tumor model, B16-F0; parameters: species or system mouse
Method: as §4, §5

[4] = tested on: LLC1 Lewis lung carcinoma; experiment: In vivo tumor model, LLC1; parameters: species or system mouse
Method: as §1, with “Tumor-associated ECs were identified by flow cytometry using Alexa Fluor 647-conjugated anti-CD34 (RAM34; eBioscience) and FITC-conjugated anti-CD45 (J33; Immunotech).” left out
Mice were anesthetized and intracardiacally perfused with PBS and 4% (w/v) paraformaldehyde and tissues were embedded in OCT. […] Pericyte maturation was assessed using Ab specific for α-SMA (1A4; Dako), desmin (D33; Dako), PDGFR-β (APB5; Biolegend) and RGS5 (HPA001821; Prestige Sigma). […]

R1.1 T-cell lymphoma = experiment: In vivo tumor model, R1.1; parameters: species or system mouse
Method: as §1, with “counted. […]” for “counted.”

[5] = F8.G7 10 mg/kg combined with anti-VEGF mAb, day 7
[6] = single administration of F8.G7 mAb, 10 mg/kg

T1 sequence (P16045 whole entry): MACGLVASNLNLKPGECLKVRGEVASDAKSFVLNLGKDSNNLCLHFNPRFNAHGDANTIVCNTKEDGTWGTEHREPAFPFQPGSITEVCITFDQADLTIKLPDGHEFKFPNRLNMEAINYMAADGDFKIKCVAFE

B1: F8.G7: mouse anti-Gal1 blocking (neutralizing) monoclonal antibody; hybridoma 8F4.F8.G7, ATCC deposit PTA-10535; vH SEQ ID NO: 6, vK SEQ ID NO: 11 (antibody, V domains shown)
VH: EVQLQQSVAEFVRPGASVRLSCTASGFNIKNTYIHWVRQRPEQGLEWIGKIDPANGNTKYVPEFQGKATMTADTSSNTVYLHLSSLTSEDTAIYYCVDGYYGWYFAVWGTGTTVTVSS
VL: QAVVTQESALTTSPGETVTLTCRSSTGAVTTSNYANWVQEKPDHLFTGLIGATNNRAPGVPARFSGSLIGDKAVLTITGAQTEDEAIYFCALWYRNHFIFGSGTKVTVL
modifications: Anti-human
Gal1-induced VEGFR2 phosphorylation (VEGFR2): inhibited to levels comparable to those attained by MGAT5 silencing
tumor growth and vascularization (B16-F0 melanoma [1]): sustained inhibition of tumor growth and vascularization
tube formation induced by Gal1 (HUVEC tube formation): specifically prevented
binding to other members of the galectin family [2]: did not bind
EC migration induced by Gal1 (HUVEC migration): specifically prevented
T-cell proliferation (TDLN cells; mice bearing B16-F0 tumors): stimulated
tumor-specific IL-10 production (TDLN cells; mice bearing B16-F0 tumors): blunted
immunological phenotype (TDLN cells; mice inoculated with LLC1): confirmed
number of TDLN and tumor-infiltrating IFN-γ-producing CD8+ T cells (TDLN cells; vs control-treated mice): dramatic increase
amounts of secreted Gal1 (Gal1): dropped substantially
T cells reaching tumor parenchyma (B16-F0 tumor parenchyma; CFSE-labeled T cells, vs control isotype): greater number
number of CFSE+ T cells in spleens (B16-F0 tumor parenchyma; vs control isotype): no differences
access of fluorescently-labeled beads to the tumor parenchyma (B16-F0 tumor parenchyma; vs control-treated mice): increased access
therapeutic benefit of anti-VEGF (B16-F0 melanoma [3]; F8.G7 10 mg/kg combined with anti-VEGF mAb): slightly enhanced
remodeling of tumor vasculature (B16-F0 melanoma [3]; days 4-5 post treatment): substantial remodeling of the vasculature
pericyte coverage of tumor vessels (B16-F0 melanoma [3]; days 4-5 post treatment, vs control mAb): greater coverage by pericytes
anti-tumor effect (B16-F0 melanoma [3]; immunodeficient B6.Rag1−/− mice): only a partial anti-tumor effect
concentrations at which active (B16-F0 melanoma [3]; in vivo tumor models): 5 to 10 mg/kg
tumor hypoxia (pimonidazole adducts) (B16-F0 melanoma [3]; mouse, in vivo): markedly alleviated
tumor growth at different doses (B16-F0 melanoma [3]; treated when tumors reached 100 mm^3): dose-dependent effect
Desmin expression in pericytes (B16-F0 melanoma [3]; vs control-treated tumors): no significant variations
PDGFR-β expression in pericytes (B16-F0 melanoma [3]; vs control-treated tumors): lower expression
RGS5 expression in pericytes (B16-F0 melanoma [3]; vs control-treated tumors): lower expression
α-SMA expression in pericytes (B16-F0 melanoma [3]; vs control-treated tumors): higher expression
anti-VEGF resistance (tumor growth inhibition and reduced vascularization) [4, 5]: successfully circumvented
tumor growth and vascularization [4, 6]: sustained inhibition of tumor growth and vascularization
anti-VEGF resistance (tumor growth inhibition and reduced vascularization) (R1.1 T-cell lymphoma; [5]): successfully circumvented
tumor growth and vascularization (R1.1 T-cell lymphoma; [6]): sustained inhibition of tumor growth and vascularization
